# In patent US11041003B2, “Crystal structure of Staphylococcus aureus clumping factor A in complex with fibrinogen derived peptide and uses thereof” (THE TEXAS A&M UNIVERSITY SYSTEM, priority 2008, dated 2021):
# pKd: −log10 of the molar value. Where a SMILES comes first, the peptide text is derived from it.
# How the values were obtained:
# αIIbβ3 = αIIbβ3 (Homo sapiens, UniProt P05106+P08514); experiment: Integrin (αIIbβ3) inhibition assay: inhibition of full length Fg binding to αIIbβ3; conditions: 10 nM full length Fg, inhibitory ELISA type assay
# Protocol: For αIIbβ3 inhibition assay. αIIbβ3Immulon 4HBX Microtiter 96-well plates (Thermo) were coated with αIIbβ3 ([…]) in TBS (25 mM Tris, 3 mM KCl, 140 mM NaCl, pH 7.4) over night at 4° C. The wells were washed with TBS containing 0.05% (w/v) Tween-20 (TBST). After blocking with 3% (w/v) BSA dissolved in TBS for 1 h at RT, 10 nM of full length Fg was applied in the presence of either WT γ^1-17, γ^1-17D16A or γ^1-17K12A peptides and plates were incubated at RT for another hour. The bound full length Fg was then detected by goat anti human Fg (1:1000 dilution, Sigma) antibody followed by horseradish peroxidase-conjugated rabbit anti-goat IgG antibody (1:1000 dilution, Cappel). After incubation with 0.4 mg/ml of substrate, o-phenylenediamine dihydrochloride (OPD, Sigma) dissolved in phosphate-citrate buffer, pH 5.0, bound antibodies were determined in an ELISA reader at 450 nm. The proteins, antibodies and peptides were diluted in TBST containing 1% (w/v) BSA, 2 mM MgCl2, 1 mM of CaCl2 and MnCl2.
# To examine this possibility, the ability of the synthesized Fg WT g^1-17 and mutated peptides (g^1-17D16A and g^1-17K12A) to inhibit full length Fg binding to αIIbβ3 was analyzed by inhibitory ELISA type assay (FIG. 6).
# GST-Fg γ^1-17 = target: T1, GST-Fg γ^1-17 (Homo sapiens, UniProt P02679); experiment: ELISA-type binding of ClfA proteins to immobilized GST-Fg γ^1-17; conditions: GST Fg γ^1-17 coated in microtiter wells; read-out: apparent Kd for GST-Fg γ^1-17
# T1 construct: made in house; host or cells: Escherichia coli
compound,measurement,setting,value
CC(C)C[C@H](NC(=O)[C@H](Cc1c[nH]cn1)NC(=O)[C@H](Cc1c[nH]cn1)NC(=O)[C@H](CCC(N)=O)NC(=O)[C@H](CCC(N)=O)NC(=O)CNC(=O)[C@H](CCC(=O)O)NC(=O)CN)C(=O)NCC(=O)NCC(=O)N[C@@H](C)C(=O)N[C@@H](CCCCN)C(=O)N[C@@H](CCC(N)=O)C(=O)N[C@@H](C)C(=O)NCC(=O)N[C@@H](CC(=O)O)C(=O)N[C@H](C(=O)O)C(C)C [g^1-17] (H-GEGQQHHLGGAKQAGDV-OH; N-terminus and C-terminus assumed),inhibition of full length Fg binding to αIIbβ3,αIIbβ3,completely inhibited
same,inhibition of full length Fg binding to αIIbβ3,αIIbβ3; listed as Fg-γ^1-17,inhibits
"ClfA229-545: recombinant His-tag ClfA construct, residues 229-545 of SEQ ID NO:35, composed only of the N2 N3 domains",pKd,GST-Fg γ^1-17,6.65
g^1-17K12A: Fg γ 395-411 peptide with Lys12→Ala (GEGQQHHLGGAAQAGDV),inhibition of full length Fg binding to αIIbβ3,αIIbβ3,weakly inhibited
same,inhibition of full length Fg binding to αIIbβ3,αIIbβ3; listed as γ^1-17K12A,very little inhibitory effect
